For the data set, the target named is SbcC;SbcD H84Q (Escherichia coli;Escherichia coli, UniProt P13458;P0AG76 1-1048;1-400, |H84Q). The data set is described as follows: fluorescence anisotropy; 1 mM ATP, 5 mM Mg2+, 1 mM Mn2+; 25 mM Tris pH 7.5, 50 mM KCl, 5 mM MgCl2, 1 mM MnCl2, 1 mM DTT, 1 mM ATP where stated; 5 nM DNA, 2-1000 nM SbcCD, 20 min at 25 C. The conditions noted are these: protein: recombinant;recombinant; tags: ;C-terminal His6; chain copies: 2;2; label: 5' 6-FAM; blunt.

Drawing on article PMC6265447, “The bacterial Mre11–Rad50 homolog SbcCD cleaves opposing strands of DNA by two chemically distinct nuclease reactions”, this text covers Kd for 2 molecules.

B1: 30 bp DNA (dsDNA)
DNA 1: CGCTTTATCAGAAGCCAGACATTAACGCTT
DNA 2: AAGCGTTAATGTCTGGCTTCTGATAAAGCG
B1: the Kd came to 43 ± 7 nM.

B2: 25 bp DNA (dsDNA)
DNA 1: CGCTTTATCAGAAGCCAGACATTAA
DNA 2: TTAATGTCTGGCTTCTGATAAAGCG
For the molecule B2, the Kd turned out to be 146 ± 46 nM.
